# Source: paper PMC5329690, “A Synthetic Strategy for Conjugation of Paromomycin to Cell-Penetrating Tat(48-60) for Delivery and Visualization into Leishmania Parasites” (International Journal of Peptides, 2017)
# Tested on: Leishmania donovani promastigotes
# Assay: Intracellular uptake by confocal fluorescence microscopy
# Type: cell-based
# Details: L. donovani promastigotes strain MHOM/SD/00/1S-2D, 2 × 10^7 cells/mL in HBSS-Glc; 9 μM conjugate, 4 h, 26°C; washed, DAPI 5 μg/mL, unfixed; confocal fluorescence λex 488 nm/λem 520 nm; representative of two other independent experiments
# Procedure: Leishmania donovani promastigotes (strain MHOM/SD/00/1S-2D) were resuspended in Hanks' medium supplemented with 10 mM D-glucose (HBSS-Glc) at 2 × 10^7 cells/mL. Afterwards, 9 μM Bodi Fluor 488-labeled PMM-Tat conjugate 6 was added to the parasite suspension and incubated for 4 h in HBSS-Glc. After incubation, non-incorporated 6 was removed by washing the cells with HBSS-Glc. Finally, cells were labeled with DAPI (5 μg/mL, 20 min) before their observation, unfixed, in a Leica TCS–SP2 ABOS confocal laser scanning microscope.
# Figure 3 Fluorescence of Leishmania donovani promastigotes incubated with Bodi Fluor 488-labeled PMM-Tat conjugate (9 μM, 4 h, 26°C) and stained with DAPI (5 μg/mL) immediately before observation, unfixed. Settings: conjugate (green, λex = 488 nm/λem = 520 nm); DAPI (blue, λex = 350 nm/λem = 460 nm). Bar = 20 μm. Experiment is representative of two other ones performed independently.
# 4. Parasite culture and confocal microscopy
# Leishmania donovani promastigotes (strain MHOM/SD/00/1S-2D) were resuspended in Hanks’ medium supplemented with 10 mM D-glucose (HBSS-Glc) at 2 × 10^7 cells/mL.
# Afterwards, 9 µM BodiFluor™ 488-labeled PMM-Tat conjugate was added to the parasite suspension and incubated for 4 h in HBSS-Glc. After incubation, non-incorporated conjugate was removed by washing the cells with HBSS-Glc. […]
substance,measurement,value
Bodi Fluor-O2Oc-Tat(48-60)-O2Oc-Asp(paromomycin)-amide [compound 6],intracellular uptake (internalization and cellular pattern),"can enter the parasite, with a diffuse pattern in all the cytoplasm"
